Test results reported in patent publication US11254720B2, “Methods and systems for designing and/or characterizing soluble lipidated ligand agents” (Tufts Medical Center, priority 2013, dated 2022).

Assays:
CCK1R = target: T1, CCK1R (Homo sapiens, UniProt P32238); experiment: SRE-luciferase agonist assay in transfected HEK293 cells; assay type: cell-based; conditions: tethered ligand cDNA cotransfected, 24 hours
T1 construct: expressed in transfected cells; host or cells: HEK293
T1 sequence (P32238 1-428): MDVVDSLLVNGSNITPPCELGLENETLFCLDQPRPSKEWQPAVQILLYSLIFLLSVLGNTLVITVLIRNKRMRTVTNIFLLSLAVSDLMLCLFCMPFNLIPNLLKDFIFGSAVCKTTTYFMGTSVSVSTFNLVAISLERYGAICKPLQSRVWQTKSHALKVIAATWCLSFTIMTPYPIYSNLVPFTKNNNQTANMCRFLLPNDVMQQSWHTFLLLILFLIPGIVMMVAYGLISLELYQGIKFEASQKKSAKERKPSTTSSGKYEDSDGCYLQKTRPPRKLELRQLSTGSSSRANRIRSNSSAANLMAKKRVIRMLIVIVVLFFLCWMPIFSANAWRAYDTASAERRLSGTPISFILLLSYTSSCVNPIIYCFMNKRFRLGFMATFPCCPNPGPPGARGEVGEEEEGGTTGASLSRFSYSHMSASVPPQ
Experimental: (§1) A) Tethered CCK4-Gly activates the CCK2 receptor (left panel). Potency of the corresponding soluble lipidated ligand agent (1-CCK4-Gly) exceeds that of soluble CCK-4-Gly (right panel). […] HEK293 cells were transiently cotransfected with cDNAs encoding: the designated CCK receptor subtype, a 5X-SRE-Luc-pest reporter gene (pGL4.33), tethered ligand (as indicated) and a β-galactosidase gene to control for transfection efficiency. Tethered ligand activity was measured 24 hours following transfection. To assess activity of soluble and lipidated CCK-4-Gly, cells were stimulated for 4 hours with ligand. Both soluble and tethered ligand activity was quantified relative to a parallel preparation of CCK receptor expressing cells stimulated for 4 hours with soluble amidated CCK-4 (s-CCK4-NH2, 10 μM) for CCK-2R and soluble amidated CCK-8 (s-CCK8-NH2, 10 μM) for CCK-1R.
(§2) Neurokinin receptors were purchased from the Missouri S+T cDNA Resource center. […] The nucleotide sequences of all receptor coding regions and tethered ligands were confirmed by automated DNA sequencing and analyzed using Vector NTI software (Invitrogen).

CCK2R = target: T2, CCK2R (Homo sapiens, UniProt P32239); experiment: as above; assay type: cell-based; conditions: tethered ligand cDNA cotransfected, 24 hours
T2 construct: expressed in transfected cells; host or cells: HEK293
T2 sequence (P32239 1-447): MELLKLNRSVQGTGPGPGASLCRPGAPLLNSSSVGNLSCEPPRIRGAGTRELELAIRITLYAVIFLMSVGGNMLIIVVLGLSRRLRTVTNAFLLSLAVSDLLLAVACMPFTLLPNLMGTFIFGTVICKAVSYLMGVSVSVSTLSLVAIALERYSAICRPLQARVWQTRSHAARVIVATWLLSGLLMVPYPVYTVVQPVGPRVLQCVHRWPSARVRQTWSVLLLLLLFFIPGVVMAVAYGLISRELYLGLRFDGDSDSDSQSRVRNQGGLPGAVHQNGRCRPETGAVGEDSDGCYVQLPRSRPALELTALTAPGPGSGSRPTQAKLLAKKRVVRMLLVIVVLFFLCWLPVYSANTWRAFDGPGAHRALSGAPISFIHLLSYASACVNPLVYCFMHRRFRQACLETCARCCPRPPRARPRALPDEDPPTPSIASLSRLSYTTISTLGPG
Experimental: as §1, §2

- Activity of membrane-tethered ligand at CCK1R (CCK1R): no activity
Substance: tCCK4-Gly: membrane-tethered glycine extended CCK4 (WMDFG) (chain (part 1 of 2) MSTSMIRDVELAEEALPKKTGGPQGSRRCLFSLFIVAGATTLFCLLHFGVI; left off: small tags and cut ends)
- Activity of membrane-tethered ligand at CCK2R (CCK2R): activated the CCK2R in a concentration dependent manner
